The results in this text go back to patent US20190324031A1 (MARS, published 2019).

Numbered stars: 1 amine (or outer) side, 2 acyl side, 3 side chain; on linkers, the order of the positions; unused ones are H or OH. Square brackets hold non-standard residues; d marks the D form. Ends that are not written are not given here. γGlu = O=C(O)[C@H](CCC(=O)[*:2])N[*:1]

For this assay, the target named is T1, feline calcium-sensing receptor (fCaSR) from Felis catus, full length, expressed in HEK T-Rex/natClytin cells … (Felis catus).
T1 chain: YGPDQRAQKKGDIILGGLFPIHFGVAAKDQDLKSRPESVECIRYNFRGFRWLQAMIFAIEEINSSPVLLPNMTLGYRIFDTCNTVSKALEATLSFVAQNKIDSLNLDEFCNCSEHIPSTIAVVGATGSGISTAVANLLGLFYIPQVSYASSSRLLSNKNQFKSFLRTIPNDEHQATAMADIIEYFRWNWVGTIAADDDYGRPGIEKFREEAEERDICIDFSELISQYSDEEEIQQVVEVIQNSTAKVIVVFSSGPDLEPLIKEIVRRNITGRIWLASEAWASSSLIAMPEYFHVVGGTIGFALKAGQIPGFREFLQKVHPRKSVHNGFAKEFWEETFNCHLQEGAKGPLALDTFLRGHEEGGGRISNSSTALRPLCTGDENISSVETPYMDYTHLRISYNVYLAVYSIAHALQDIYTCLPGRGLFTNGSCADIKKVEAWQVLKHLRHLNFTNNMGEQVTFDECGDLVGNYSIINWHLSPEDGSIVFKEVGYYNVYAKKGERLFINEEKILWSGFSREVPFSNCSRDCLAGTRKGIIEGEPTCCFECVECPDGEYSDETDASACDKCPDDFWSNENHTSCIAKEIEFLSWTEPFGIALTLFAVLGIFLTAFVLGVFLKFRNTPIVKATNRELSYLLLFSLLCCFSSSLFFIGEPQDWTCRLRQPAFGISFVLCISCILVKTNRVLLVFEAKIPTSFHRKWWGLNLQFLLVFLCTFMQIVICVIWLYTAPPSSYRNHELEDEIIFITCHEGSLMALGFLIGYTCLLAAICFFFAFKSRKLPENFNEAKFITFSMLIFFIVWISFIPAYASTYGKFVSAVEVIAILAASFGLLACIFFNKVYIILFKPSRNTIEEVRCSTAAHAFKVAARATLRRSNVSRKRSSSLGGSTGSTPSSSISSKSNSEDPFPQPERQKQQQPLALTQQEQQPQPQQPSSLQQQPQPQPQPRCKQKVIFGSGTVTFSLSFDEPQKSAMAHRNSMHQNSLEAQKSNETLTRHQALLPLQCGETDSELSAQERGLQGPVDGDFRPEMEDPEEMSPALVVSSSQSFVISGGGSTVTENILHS
Description: cell-based or functional assay.

B1: L-Glutathione (γ-Glu-Cys-Gly) (peptide)
peptide: [γGlu]-Cys-Gly
modifications: also: γ-glutamyl peptide bond between Glu side chain and Cys
For the molecule B1, the “Agonist EC50” value stood at 8.2 mM.
